Source: article doi:10.1101/2022.09.12.507593 (bioRxiv, 2022)

T1: OGT-TPR not fused to SUMO (aa 2-474 of ncOGT, SUMO tag removed) (human, UniProt O15294-1 2-474)
T1 sequence (looked up): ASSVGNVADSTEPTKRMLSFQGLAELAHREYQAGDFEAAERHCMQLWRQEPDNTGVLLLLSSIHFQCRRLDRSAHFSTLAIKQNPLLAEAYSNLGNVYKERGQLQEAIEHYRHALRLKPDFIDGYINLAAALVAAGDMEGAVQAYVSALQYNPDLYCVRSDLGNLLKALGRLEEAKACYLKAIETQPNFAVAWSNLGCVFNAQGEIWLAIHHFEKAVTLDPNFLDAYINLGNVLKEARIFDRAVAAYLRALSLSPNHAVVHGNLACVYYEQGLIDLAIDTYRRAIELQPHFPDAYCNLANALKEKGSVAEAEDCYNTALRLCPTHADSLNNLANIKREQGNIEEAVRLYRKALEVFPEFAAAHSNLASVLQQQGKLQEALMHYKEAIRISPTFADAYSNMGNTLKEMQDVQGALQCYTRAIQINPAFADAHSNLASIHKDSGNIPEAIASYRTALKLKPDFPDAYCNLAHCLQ

B1: SUMO-fused TPR region of OGT (OGT-TPR, aa 2-474 of ncOGT) (domain or fragment, human, UniProt O15294-1 2-474, looked up)
chain: T1 sequence (looked up)
B2: WT FUS LCRN (Fused in sarcoma N-terminal low-complexity region, aa 1-214) (domain or fragment, human, UniProt P35637 1-214, looked up)
chain: MASNDYTQQATQSYGAYPTQPGQGYSQQSSQPYGQQSYSGYSQSTDTSGYGQSSYSSYGQSQNTGYGTQSTPQGYGSTGGYGSSQSSQSSYGQQSSYPGYGQQPAPSSTSGSYGSSSQSSSYGQPQSGSYSQQPSYGGQQQSYGQQQSYNPPQGYGQQNQYNSSSGGGGGGGGGGNYGQDQSSMSSGGGSGGGYGNQDQSGGGGSGGYGQQDRG

Assays:
[1] = target: B2; experiment: NMR titration
[2] = target: T1, OGT-TPR not fused to SUMO (aa 2-474 of …); experiment: NMR titration

Row | Binder | average peak intensity ratio (plus OGT-TPR/apo) [1] | binding result [2]
1 | B1 | 0.48 | 
2 | B2 |  | binds
